Results: article PMC4959528, “SpoVG Is a Conserved RNA-Binding Protein That Regulates Listeria monocytogenes Lysozyme Resistance, Virulence, and Swarming Motility”

T1: SpoVG-6-His (Listeria monocytogenes 10403S) (UniProt Q8YAD5)
T1 sequence: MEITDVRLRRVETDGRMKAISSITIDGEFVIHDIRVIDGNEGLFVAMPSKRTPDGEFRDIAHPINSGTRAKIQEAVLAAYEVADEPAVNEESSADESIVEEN

T2: SpoVG-6-His (Listeria monocytogenes 10403S, UniProt Q8YAD5 1-102)
T2 sequence: T1 sequence

B1: cap41 dsDNA (dsDNA)
DNA 1: GAGTATAATTATTTTTAATTTACATATAAATAAAAAGGCGAAAATAATGCGGTTTAAAAGTAATTAAT
DNA 2: ATTAATTACTTTTAAACCGCATTATTTTCGCCTTTTTATTTATATGTAAATTAAAAATAATTATACTC

How the values were obtained:
[1] = biological target: T1, SpoVG-6-His (Listeria monocytogenes 10403S); assay: EMSA; conditions: 2x buffer: 40 mM Tris-HCl pH 8.0, 2 mM MgCl2, 20% glycerol, 300 mM NaCl, 5 mM DTT, plus 5 ug yeast tRNA, 1 ug BSA, 100 ng poly(dI-dC) …
[2] = biological target: T1, SpoVG-6-His (Listeria monocytogenes 10403S); assay: competition; conditions: EMSA, 2x buffer: 40 mM Tris-HCl pH 8.0, 2 mM MgCl2, 20% glycerol, 300 mM NaCl, 5 mM DTT; plus 5 ug yeast tRNA, 1 ug BSA, 100 ng poly(dI-dC) …
[3] = biological target: T2, SpoVG-6-His; assay: EMSA; EMSA, 2x buffer: 40 mM Tris-HCl pH 8.0, 2 mM MgCl2, 20% glycerol, 300 mM NaCl, 5 mM DTT; plus 5 ug yeast tRNA, 1 ug BSA, 100 ng poly(dI-dC); 25-30 ul, room temperature 30 min, 5% native PAGE; conditions: protein: recombinant; tags: C-terminal 6xHis; label: 32P
[4] = biological target: T2, SpoVG-6-His; assay: EMSA; no significant binding to dsDNA; EMSA, 2x buffer: 40 mM Tris-HCl pH 8.0, 2 mM MgCl2, 20% glycerol, 300 mM NaCl, 5 mM DTT; plus 5 ug yeast tRNA, 1 ug BSA, 100 ng poly(dI-dC); 25-30 ul, room temperature 30 min, 5% native PAGE; conditions: protein: recombinant; tags: C-terminal 6xHis; label: 32P; blunt

Molecule | Kd [1] [nM] | binding [1] | further results
GGUAUCCCAUAGAGAUUGUCAUUUGAAAUAAGCUAAUUGAAAAUAAAUUACUUCCCCCAUAGAAAUAUUCUUAAUUGCUUAUUUCAAAUAAACACUCCUUUAAGAUAGUUGUAGCACAGAAUUUCCCAGAUUCUGUGCUAUAAUUA [Rli31] | 273 |  | 
GGGCAGUGGAAUUAAAGGCAUCUAAGCAAAUCAUGAUGAACGAGAGAACCGUUUGAAGAUCAUCCGAAUGACGUAUAUGUUCUACCUUGAUCUGUUCAGCCGCAAUGCUUUUGCGAGUGACA [Rli109] | 129 |  | binding [2]: binds
GGUUGUCGUGCUAGACGGGGAGGUAGCGGCGCCCUGUAACCCGCAAUCCGCUCUAGCGGGGUUGAAUUCCUCAUUUGAGGCAUCGUAAUUGUUUGGUCUGCCCUUGACAAGUGGUGUUGAAGGUUGGGUCUUGCGCAAUGGGAACCUGUGAACCAUGUCAGGUCCGGAAGGAAGCAGCAUUAAGCAGUGCUUCUCAUGUGCCGCGAGGUCGCCUGGCCCGAGCUAACUAUCAGGGUAACGCAGAUGAUUGCAUGUCGAUGUGAGGUGCGCGACACUAA [SRP RNA] |  | no binding | 
Rli32 | 273 |  | 
Rli109 | 129 |  | 
GGGUGGAGAGCUUUCAUUUUUCCCAAGAGAAAGCAAAUAAUGUUAGAGCAAUAAUUCUAGUAUCCGAAUUAGUCUUAUCCCUUGGCUCGCUUUAAUAUUAUUUCUCCCUAAUACUCCCUUAACCGCAUCCCCCUGGUGCGGUUAUUUUUUUG [Rli32] | 273 |  | 
GGUAUCCCAUAGAGAUUGUCAGGGGAAAUAAGCUAAUUGAAAAUAAAUUACUUCCCCCAUAGAAAUAUUCUUAAUUGCUUAUUUCAAAUAAACACUCCUUUAAGAUAGUUGUAGCACAGAAUUUCCCAGAUUCUGUGCUAUAAUUA [Rli31 mutant A] |  | binds | 
GGUAUCCCAUAGAGAUUGUCAUUUGAAAUAAGCUAAUUGAAAAUAAAUUACUUUUUCCAUAGAAAUAUUCUUAAUUGCUUAUUUCAAAUAAACACUCCUUUAAGAUAGUUGUAGCACAGAAUUUCCCAGAUUCUGUGCUAUAAUUA [Rli31 mutant E] |  |  | binding signal [1]: binds more weakly
GGGAAAAGAAACCCUAAUGUAUUCGAUAUAGUUCCUGAUAUUUUUGAACCGAACAAUUUUUUAUACCUAGGGAGCUUGGAGUUCCGGCGCGGCGCACAUGCCUUCACACGAGGAAGUGCAAACCGUUAGACAGAGCACCCACCUGCUUUAAUUGAGAGCGGGUUCAAAGGAAGGGAAUCCUAAACGGUACGAUUGGGGUUUCUUUUUUG [6S RNA] |  | no binding | 
GGUGAGAUGACAUGUUUCUUUUGAAUGCGCGAACUAGUAUAGCUAAAUUUUUGUAUAUUGUCCGUGCAAUUUUUUCCGUUAUUGCAGUUACAUUGGCGAAGUCUGCCCAAAAAACUGUAUAACUAGAAAAAAUGAGAGAAGCAUGGAGUCACGCAAUCGAUUUGUAUAGUGCUAAAUUAGUAUUAUACUUAUAAUUGGCGUCGGGCGCUUGUCUGACGCUUUUUUGUUGUCUGAAAAAA [RliI] |  | binds more weakly | 
Rli31 | 273 |  | 
GTCGCGCAACAAAGTAATAATGCAGATGGACAGACTAATGAAAGACCAG (ssDNA) [pgdA ORF] |  |  | binding result [3]: binds
B1 |  |  | binding result [4]: no binding
